± gives the uncertainty stated by the source.
B1: Integrator complex subunit 12, residues 155 to 213; numbered along this chain, Q96CB8 (parent)
chain: AMEMGLACVVCRQMMVASGNQLVECQECHNLYHRDCHKPQVTDKEANDPRLVWYCARCT
B2: RNA-binding E3 ubiquitin-protein ligase MEX3C, residues 325 to 391; numbered along this chain, Q5U5Q3 (parent)
chain: GQTTVQVRVPYRVVGLVVGPKGATIKRIQQQTHTYIVTPSRDKEPVFEVTGMPENVDRAREEIEMHI

Variants of: B1
Experiment: abundance fitness (aPCA) (normalised: wild type 0, dead -1); higher = more abundant; growth selection in yeast, the domain comes from the species named
Settings: Homo sapiens

In order of rising abundance fitness:
1. A1P  -0.581 ± 0.19
2. L6W  -0.552 ± 0.066
3. M4W  -0.43 ± 0.064
4. E3P  -0.359 ± 0.048
5. E3L  -0.321 ± 0.04
6. M2P  -0.31 ± 0.075
7. E3R  -0.304 ± 0.037
8. E3F  -0.304 ± 0.038
9. G5F  -0.28 ± 0.035
10. G5Y  -0.267 ± 0.036
11. E3I  -0.238 ± 0.041
12. E3M  -0.232 ± 0.069
13. E3Y  -0.222 ± 0.039
14. G5L  -0.216 ± 0.038
15. G5I  -0.205 ± 0.039
16. A1W  -0.199 ± 0.24
17. M2D  -0.185 ± 0.044
18. A7F  -0.172 ± 0.038
19. A1Y  -0.168 ± 0.13
20. E3C  -0.168 ± 0.034
21. M4Y  -0.168 ± 0.036
22. E3G  -0.167 ± 0.034
23. M2W  -0.167 ± 0.075
24. E3H  -0.163 ± 0.039
25. A1F  -0.161 ± 0.11
26. A7G  -0.155 ± 0.04
27. G5M  -0.152 ± 0.055
28. G5C  -0.143 ± 0.034
29. M2A  -0.142 ± 0.043
30. E3T  -0.137 ± 0.041
31. M2H  -0.136 ± 0.059
32. G5V  -0.13 ± 0.033
33. M2Y  -0.127 ± 0.044
34. E3V  -0.119 ± 0.033
35. A1G  -0.115 ± 0.044
36. M2N  -0.112 ± 0.04
37. M2C  -0.112 ± 0.04
38. L6E  -0.106 ± 0.059
39. E3A  -0.103 ± 0.04
40. E3Q  -0.102 ± 0.071
41. A1C  -0.099 ± 0.12
42. M4F  -0.096 ± 0.038
43. E3K  -0.089 ± 0.065
44. L6F  -0.081 ± 0.036
45. L6R  -0.08 ± 0.038
46. A7Q  -0.077 ± 0.058
47. A7M  -0.069 ± 0.054
48. E3D  -0.065 ± 0.037
49. A7L  -0.064 ± 0.037
50. A7E  -0.064 ± 0.068
51. L6Y  -0.063 ± 0.034
52. A1R  -0.061 ± 0.088
53. M4D  -0.06 ± 0.04
54. M2Q  -0.058 ± 0.12
55. G5R  -0.058 ± 0.035
56. E3N  -0.056 ± 0.039
57. M2F  -0.055 ± 0.036
58. M4Q  -0.055 ± 0.09
59. L6C  -0.054 ± 0.037
60. M2R  -0.054 ± 0.038
61. G5P  -0.053 ± 0.051
62. A1I  -0.049 ± 0.18
63. M2E  -0.046 ± 0.09
64. G5T  -0.045 ± 0.039
65. M4G  -0.044 ± 0.035
66. E3S  -0.038 ± 0.031
67. L6G  -0.034 ± 0.033
68. M4K  -0.034 ± 0.072
69. L6P  -0.03 ± 0.046
70. A7D  -0.027 ± 0.04
71. M4L  -0.027 ± 0.036
72. M4C  -0.026 ± 0.036
73. A7C  -0.022 ± 0.04
74. M4P  -0.022 ± 0.057
75. M2K  -0.013 ± 0.075
76. M2L  -0.003 ± 0.038
77. G5A  -0.001 ± 0.036
78. M4V  0.006 ± 0.033
79. L6I  0.007 ± 0.034
80. G5S  0.007 ± 0.03
81. A7I  0.008 ± 0.039
82. M2G  0.009 ± 0.032
83. L6Q  0.014 ± 0.064
84. M4I  0.023 ± 0.036
85. G5H  0.026 ± 0.042
86. A1M  0.03 ± 0.2
87. L6V  0.036 ± 0.032
88. A1V  0.037 ± 0.043
89. L6H  0.038 ± 0.039
90. A7N  0.039 ± 0.036
91. M4T  0.04 ± 0.041
92. L6T  0.041 ± 0.04
93. G5N  0.043 ± 0.037
94. M4S  0.045 ± 0.032
95. A1S  0.046 ± 0.071
96. M2I  0.059 ± 0.04
97. M2S  0.065 ± 0.032
98. M4H  0.065 ± 0.041
99. G5E  0.066 ± 0.067
100. A7P  0.069 ± 0.054
101. L6S  0.073 ± 0.033
102. M2T  0.073 ± 0.045
103. L6D  0.075 ± 0.038
104. A7H  0.078 ± 0.044
105. G5Q  0.085 ± 0.052
106. L6M  0.086 ± 0.053
107. L6A  0.099 ± 0.038
108. A1N  0.109 ± 0.086
109. A1T  0.125 ± 0.068
110. G5K  0.143 ± 0.053
111. A1K  0.154 ± 0.25
112. L6K  0.173 ± 0.054
113. A1H  0.245 ± 0.17

Variants of: B2
Experiment: as above
Settings: Homo sapiens

In order of falling abundance fitness:
1. H66I  0.404 ± 0.23
2. I67W  0.289 ± 0.19
3. H66V  0.286 ± 0.093
4. H66L  0.282 ± 0.073
5. H66T  0.198 ± 0.1
6. H66R  0.178 ± 0.06
7. H66Q  0.166 ± 0.12
8. I67A  0.163 ± 0.11
9. H66F  0.135 ± 0.14
10. E62M  0.132 ± 0.086
11. E62L  0.115 ± 0.055
12. H66Y  0.11 ± 0.095
13. H66C  0.089 ± 0.099
14. E62C  0.054 ± 0.14
15. E62Q  0.034 ± 0.092
16. E62A  0.025 ± 0.059
17. I67S  -0.027 ± 0.1
18. H66K  -0.039 ± 0.12
19. H66W  -0.079 ± 0.09
20. I63N  -0.094 ± 0.26
21. I67C  -0.104 ± 0.24
22. E62V  -0.114 ± 0.084
23. E62K  -0.126 ± 0.093
24. H66E  -0.143 ± 0.14
25. I67E  -0.235 ± 0.22
26. E62Y  -0.255 ± 0.14
27. E62R  -0.299 ± 0.054
28. E62I  -0.318 ± 0.14
29. H66S  -0.336 ± 0.092
30. E62S  -0.373 ± 0.085
31. I63L  -0.412 ± 0.11
32. I67F  -0.437 ± 0.38
33. I63P  -0.461 ± 0.098
34. H66G  -0.465 ± 0.1
35. E62D  -0.494 ± 0.18
36. I63V  -0.512 ± 0.077
37. E62T  -0.52 ± 0.14
38. E62H  -0.602 ± 0.26
39. H66D  -0.625 ± 0.17
40. E62N  -0.639 ± 0.32
41. E62G  -0.679 ± 0.072
42. I63C  -0.734 ± 0.15
43. I63Y  -0.748 ± 0.19
44. I63W  -0.768 ± 0.16
45. I63M  -0.772 ± 0.16
46. I63H  -0.772 ± 0.25
47. I67P  -0.773 ± 0.28
48. I67K  -0.778 ± 0.36
49. I63A  -0.845 ± 0.14
50. I63Q  -0.863 ± 0.22
51. H66P  -0.88 ± 0.21
52. I63S  -0.894 ± 0.15
53. I63G  -0.899 ± 0.14
54. E62P  -1.01 ± 0.3

From the Human Domainome abundance scans (Beltran et al. 2025)
